Test results as given in US20260092115A1 (Chugai, published 2026).
Numbering of substitutions follows the chain as printed. Blank lines part the entries; values can stand above or below the binder they belong to.

What was measured:
[1] = target: T1, human CTLA4 (soluble analyte of the Biacore assays of Examples 3-3, 4 and 5) (human, UniProt P16410 36-161); assay: SPR 37C, Ab on Protein G, 1000 nM CTLA4, no ATP
T1 construct: also called hCTLA4
T1 sequence: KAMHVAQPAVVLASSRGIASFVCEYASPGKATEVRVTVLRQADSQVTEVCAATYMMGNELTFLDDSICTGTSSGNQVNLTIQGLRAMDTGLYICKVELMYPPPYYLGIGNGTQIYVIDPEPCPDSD
Description: (§1) Next, by interacting with a human CTLA4 solution prepared in a running buffer containing ATP to the desired concentration, or a human CTLA4 solution prepared in a running buffer containing no ATP, the binding ability of the antibody to human CTLA4 in the presence or absence of ATP was evaluated. Chips were regenerated with 25 mM NaOH and 10 mM Glycine-HCl (pH 1.5), and assay was performed by repeatedly capturing antibodies. The dissociation constant of each antibody for CTLA4 was calculated using Biacore T200 Evaluation Software 2.0. Specifically, the binding rate constant ka (L/mol/s) and the dissociation rate constant kd (1/s) were calculated by global fitting of the sensorgrams obtained by the measurement, using a 1:1 Langmuir binding model. The dissociation constant KD (mol/L) was calculated from those values. Alternatively, the dissociation constant KD (mol/L) was calculated by the steady state model. In addition, the binding amount of CTLA4 per unit amount of antibody was calculated by correcting the amount of CTLA4 bound as calculated from the sensorgram obtained by the assay with the amount of antibody captured onto the chip surface.
(§2) Biacore T200 was used to evaluate the binding of the generated variants to ATP and to human CTLA4. The assay of binding to ATP was performed at 37° C. using 20 mM ACES (pH 7.4), 150 mM NaCl, 2 mM MgCl₂, 0.05% Tween20 as the running buffer. First, Sure Protein A (GE Healthcare) was immobilized onto a Series S Sensor Chip CM3 (GE Healthcare), and the antibodies were captured onto the chip by interacting an antibody solution prepared in the running buffer. Next, the binding ability to the antibody was evaluated by interacting with an ATP solution prepared in the running buffer. Chips were regenerated with 25 mM NaOH and 10 mM Glycine-HCl (pH 1.5) and assay was performed by repeatedly capturing antibodies. For the binding amount of each antibody to ATP, the binding amount of ATP per unit amount of antibody was calculated by correcting the amount of binding when ATP was injected at a concentration of 100 nM with the amount of antibody captured onto the chip surface. Binding to human CTLA4 was measured using Biacore T200 by the method described in Example 3-3.

[2] = target: T1, human CTLA4 (soluble analyte of the …); assay: SPR 37C, Ab on Protein G, 1000 nM CTLA4, ATP 100 uM
Description: as §1, §2

[3] = target: T1, human CTLA4 (soluble analyte of the …); assay: SPR 37C, Ab on Protein G, 1000 nM CTLA4, ATP 10 uM
Description: as §1, §2

[4] = target: T1, human CTLA4 (soluble analyte of the …); assay: SPR 37C, Ab on Protein G, 1000 nM CTLA4, ATP 1 uM
Description: as §1, §2

mCTLA4-His = target: T2, mCTLA4-His (mouse, UniProt P09793 36-161); assay: SPR 37C, ATP 100 µM
T2 construct: also called mouse CTLA4; Mouse CTLA4

[5] = target: T1, human CTLA4 (soluble analyte of the …); assay: SPR 37C, ATP 10 µM
Description: as §1, with “Biacore T200 was used to measure the binding of the generated antibodies to human CTLA4. 20 mM ACES (pH 7.4), 150 mM NaCl, 2 mM MgCl₂, 0.05% Tween 20 with ATP added to the desired concentration was used as the running buffer, and the assay was performed at 37° C. First, Protein G (CALBIOCHEM) was immobilized onto a Series S Sensor Chip CM3 (GE Healthcare), and the antibodies were captured by interacting an antibody solution prepared in an ATP-free running buffer with the chip. Next,” for “Next,”, “In addition, the binding amount of CTLA4 per unit amount of antibody was calculated by correcting the amount of CTLA4 bound as calculated from the sensorgram obtained by the assay with the amount of antibody captured onto the chip surface.” left out

[6] = target: T1, human CTLA4 (soluble analyte of the …); assay: SPR 37C, Ab on Protein G, 1000 nM CTLA4, ATP 100 uM; ATP 100 uM; binding amount at 1000 nM CTLA4
Description: as §1, with “Biacore T200 was used to measure the binding of the generated antibodies to human CTLA4. 20 mM ACES (pH 7.4), 150 mM NaCl, 2 mM MgCl₂, 0.05% Tween 20 with ATP added to the desired concentration was used as the running buffer, and the assay was performed at 37° C. First, Protein G (CALBIOCHEM) was immobilized onto a Series S Sensor Chip CM3 (GE Healthcare), and the antibodies were captured by interacting an antibody solution prepared in an ATP-free running buffer with the chip. Next,” for “Next,”
(§3) The KD values marked with an * in the table were calculated using the steady state model. It was shown that all the variants prepared using 04H0150-G1m/04L0072-lam1 as the parent antibody had enhanced binding in the presence of ATP as compared to 04H0150-G1m/04L0072-lam1.

[7] = target: T1, human CTLA4 (soluble analyte of the …); assay: SPR 37C, Ab on Protein G, 1000 nM CTLA4, ATP 1 uM; ATP 1 uM; binding amount at 1000 nM CTLA4
Description: as §1, with “Biacore T200 was used to measure the binding of the generated antibodies to human CTLA4. 20 mM ACES (pH 7.4), 150 mM NaCl, 2 mM MgCl₂, 0.05% Tween 20 with ATP added to the desired concentration was used as the running buffer, and the assay was performed at 37° C. First, Protein G (CALBIOCHEM) was immobilized onto a Series S Sensor Chip CM3 (GE Healthcare), and the antibodies were captured by interacting an antibody solution prepared in an ATP-free running buffer with the chip. Next,” for “Next,”
as §3

[8] = target: T1, human CTLA4 (soluble analyte of the …); assay: SPR 37C, Ab on Protein G, 1000 nM CTLA4, no ATP; no ATP; binding amount at 1000 nM CTLA4
Description: as §1, with “Biacore T200 was used to measure the binding of the generated antibodies to human CTLA4. 20 mM ACES (pH 7.4), 150 mM NaCl, 2 mM MgCl₂, 0.05% Tween 20 with ATP added to the desired concentration was used as the running buffer, and the assay was performed at 37° C. First, Protein G (CALBIOCHEM) was immobilized onto a Series S Sensor Chip CM3 (GE Healthcare), and the antibodies were captured by interacting an antibody solution prepared in an ATP-free running buffer with the chip. Next,” for “Next,”
as §3

[9] = target: T1, human CTLA4 (soluble analyte of the …); assay: SPR 37C, Ab on Protein G, 1000 nM CTLA4, ATP 10 uM; ATP 10 uM; binding amount at 1000 nM CTLA4
Description: as §1, with “Biacore T200 was used to measure the binding of the generated antibodies to human CTLA4. 20 mM ACES (pH 7.4), 150 mM NaCl, 2 mM MgCl₂, 0.05% Tween 20 with ATP added to the desired concentration was used as the running buffer, and the assay was performed at 37° C. First, Protein G (CALBIOCHEM) was immobilized onto a Series S Sensor Chip CM3 (GE Healthcare), and the antibodies were captured by interacting an antibody solution prepared in an ATP-free running buffer with the chip. Next,” for “Next,”
as §3

- Binding to Human CTLA4 (amount per unit antibody) [1]: 0.03
- Binding to Human CTLA4 (amount per unit antibody) [2]: 0.151
- Binding to Human CTLA4 (amount per unit antibody) [3]: 0.154
- Binding to Human CTLA4 (amount per unit antibody) [4]: 0.12
B1: 04H1389-G1m/04L1305-k0MT (antibody, human IgG1, kappa)
heavy: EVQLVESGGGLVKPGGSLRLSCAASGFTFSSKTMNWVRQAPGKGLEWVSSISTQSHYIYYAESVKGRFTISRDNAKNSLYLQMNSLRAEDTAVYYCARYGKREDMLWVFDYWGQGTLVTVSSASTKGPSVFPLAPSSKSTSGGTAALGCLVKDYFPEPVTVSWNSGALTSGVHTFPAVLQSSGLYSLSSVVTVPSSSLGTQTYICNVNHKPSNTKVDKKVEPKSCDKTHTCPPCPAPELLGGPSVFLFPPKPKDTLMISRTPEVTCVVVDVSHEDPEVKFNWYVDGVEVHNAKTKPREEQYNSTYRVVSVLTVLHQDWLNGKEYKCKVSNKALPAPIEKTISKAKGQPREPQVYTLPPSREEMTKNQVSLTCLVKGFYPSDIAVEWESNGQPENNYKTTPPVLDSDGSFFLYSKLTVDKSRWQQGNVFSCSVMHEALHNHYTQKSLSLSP
light: DIVMTQSPLSLPVTPGEPASISCDGPSTGVGDYNYVHWYQQKPGQAPRLLIYFTSKKPSGVPDRFSGSGSGTDFTLKISRVEAEDVGVYYCQTYAAPLGPMFGQGTKLEIKRTVAAPSVFIFPPSDEQLKSGTASVVCLLNNFYPREAKVQWKVDNALQSGNSQESVTEQDSKDSTYSLSSTLTLSKADYEKHKVYACEVTHQGLSSPVTKSFNRGEC

- fold weaker binding ability to mouse CTLA4 than to human CTLA4 (mCTLA4-His): ~2 fold
B2: 04H1208-G1m/04L1407-k0MT (antibody, human IgG1, kappa, V domains shown)
VH: EVQLVESGGGLVKPGGSLRLSCAASGFTFSSKTMNWVRQAPGKGLEWVSSISTRSGYIYYARSVKGRFTISRDNAKNSLYLQMNSLRAEDTAVYYCARYGKREDMLWVFDYWGQGTLVTVSS
VL: DIVMTQSPLSLPVTPGEPASISCDGPSTDVGDYNWVHWYQQKPGQAPRLLIYYTSSKPEGVPDRFSGSGSGTDFTLKISRVEAEDVGVYYCQTYAAPLGPTFGQGTKLEIKR

- Binding to Human CTLA4 (amount per unit antibody) [1]: 0.022
- fold enhancement of binding ability against the parent antibody 04H1207-G1m/04L1086-lam1 [5]: ~10 fold
- Binding to Human CTLA4 (amount per unit antibody) [2]: 0.193
- Binding to Human CTLA4 (amount per unit antibody) [3]: 0.189
- Binding to Human CTLA4 (amount per unit antibody) [4]: 0.138
B3: 04H1389-G1m/04L1086-lam1 (antibody, human IgG1, lambda, V domains shown)
VH: B2 VH with R54Q, G56H, R62E
VL: QSALTQPPSASGSPGQTVTISCDGPSTGVGDYNYVHWYQQHPGKAPKLMIYFTSKKPSGVPDRFSGSKSGNTASLTVSGLQAEDEADYFCQTYAAPLGPMFGGGTKLTVLG

- Binding to Human CTLA4 (amount per unit antibody) [6]: 0.172
- Binding to Human CTLA4 (amount per unit antibody) [7]: 0.023
- Binding to Human CTLA4 (amount per unit antibody) [8]: 0.006
- Binding to Human CTLA4 (amount per unit antibody) [9]: 0.094
B4: 04H1077-G1m/04L1041-lam1 (antibody, human IgG1, lambda, V domains shown)
VH: B2 VH with G10D, S17G, K32R, R62E
VL: B3 VL with G28D, Q91S

- fold enhancement of binding ability against the parent antibody 04H1208-G1m/04L1086-lam1 [5]: ~10 fold
B5: 04H1382-G1m/04L1086-lam1 (antibody, human IgG1, lambda, V domains shown)
VH: B2 VH with R54Q, G56H
VL: B3 VL

- Binding to Human CTLA4 (amount per unit antibody) [6]: 0.17
- Binding to Human CTLA4 (amount per unit antibody) [1]: 0.003
- Binding to Human CTLA4 (amount per unit antibody) [2]: 0.139
- Binding to Human CTLA4 (amount per unit antibody) [7]: 0.03
- Binding to Human CTLA4 (amount per unit antibody) [3]: 0.084
- Binding to Human CTLA4 (amount per unit antibody) [4]: 0.022
- Binding to Human CTLA4 (amount per unit antibody) [8]: 0.005
- Binding to Human CTLA4 (amount per unit antibody) [9]: 0.108
B6: 04H1208-G1m/04L1086-lam1 (antibody, human IgG1, lambda, V domains shown)
VH: B2 VH
VL: B3 VL

- Binding to Human CTLA4 (amount per unit antibody) [6]: 0.181
- Binding to Human CTLA4 (amount per unit antibody) [7]: 0.031
- Binding to Human CTLA4 (amount per unit antibody) [8]: 0.01
- Binding to Human CTLA4 (amount per unit antibody) [9]: 0.106
B7: 04H1077-G1m/04L1086-lam1 (antibody, human IgG1, lambda, V domains shown)
VH: B2 VH with G10D, S17G, K32R, R62E
VL: B3 VL

- Binding to Human CTLA4 (amount per unit antibody) [6]: 0.192
- Binding to Human CTLA4 (amount per unit antibody) [7]: 0.041
- Binding to Human CTLA4 (amount per unit antibody) [8]: 0.012
- Binding to Human CTLA4 (amount per unit antibody) [9]: 0.131
B8: 04H1077-G1m/04L1067-lam1 (antibody, human IgG1, lambda, V domains shown)
VH: B2 VH with G10D, S17G, K32R, R62E
VL: B3 VL with Q91S

- Binding to Human CTLA4 (amount per unit antibody) [6]: 0.114
- Binding to Human CTLA4 (amount per unit antibody) [7]: 0.007
- Binding to Human CTLA4 (amount per unit antibody) [8]: 0.004
- Binding to Human CTLA4 (amount per unit antibody) [9]: 0.041
B9: 04H1077-G1m/04L1034-lam1 (antibody, human IgG1, lambda, V domains shown)
VH: B2 VH with G10D, S17G, K32R, R62E
VL: B3 VL with G28D, Y34W, H36S, Q91S

- Binding to Human CTLA4 (amount per unit antibody) [6]: 0.196
- Binding to Human CTLA4 (amount per unit antibody) [1]: 0.01
- Binding to Human CTLA4 (amount per unit antibody) [2]: 0.166
- Binding to Human CTLA4 (amount per unit antibody) [7]: 0.047
- Binding to Human CTLA4 (amount per unit antibody) [3]: 0.111
- Binding to Human CTLA4 (amount per unit antibody) [4]: 0.037
- Binding to Human CTLA4 (amount per unit antibody) [8]: 0.013
- Binding to Human CTLA4 (amount per unit antibody) [9]: 0.137
B10: 04H1207-G1m/04L1086-lam1 (antibody, human IgG1, lambda, V domains shown)
VH: B2 VH with R62E
VL: B3 VL
